According to patent US20250090677A1 (MULTITUDE THERAPEUTICS, published 2025):
Where a chain is given by its changes, count along the chain named. Read-outs that look alike come from different tables or passages of the source.

T1: CDH6 on the cell surface of OVCAR-3 cells (human ovarian cancer cells) (human, UniProt P55285 54-790)
T1 construct: whole, on cells; also called CDH6-positive human ovarian cancer cell line OVCAR-3
T1 sequence (looked up): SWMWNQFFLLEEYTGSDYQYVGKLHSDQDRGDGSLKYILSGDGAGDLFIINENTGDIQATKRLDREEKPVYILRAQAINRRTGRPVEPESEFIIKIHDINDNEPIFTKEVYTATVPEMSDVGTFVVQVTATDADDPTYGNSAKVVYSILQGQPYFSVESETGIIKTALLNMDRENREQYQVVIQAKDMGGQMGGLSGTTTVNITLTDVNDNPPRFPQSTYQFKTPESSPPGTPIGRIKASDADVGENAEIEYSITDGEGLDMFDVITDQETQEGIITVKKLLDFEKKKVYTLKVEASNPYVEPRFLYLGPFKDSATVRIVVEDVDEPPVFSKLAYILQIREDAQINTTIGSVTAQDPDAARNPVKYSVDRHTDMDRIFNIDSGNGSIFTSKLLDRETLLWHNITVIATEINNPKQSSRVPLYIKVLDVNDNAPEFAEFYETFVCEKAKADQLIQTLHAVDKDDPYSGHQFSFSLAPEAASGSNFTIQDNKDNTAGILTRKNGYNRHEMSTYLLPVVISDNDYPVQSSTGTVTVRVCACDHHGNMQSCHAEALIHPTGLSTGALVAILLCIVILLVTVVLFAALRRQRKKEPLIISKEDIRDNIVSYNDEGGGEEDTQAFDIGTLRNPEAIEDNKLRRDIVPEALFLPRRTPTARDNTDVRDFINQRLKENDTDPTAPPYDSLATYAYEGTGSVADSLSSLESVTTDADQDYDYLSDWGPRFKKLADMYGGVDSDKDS

T2: recombinant protein CDH6 (UniProt P55285 54-615)
T2 construct: also called CDH6 recombinant protein; CDH6 antigen
T2 sequence (looked up): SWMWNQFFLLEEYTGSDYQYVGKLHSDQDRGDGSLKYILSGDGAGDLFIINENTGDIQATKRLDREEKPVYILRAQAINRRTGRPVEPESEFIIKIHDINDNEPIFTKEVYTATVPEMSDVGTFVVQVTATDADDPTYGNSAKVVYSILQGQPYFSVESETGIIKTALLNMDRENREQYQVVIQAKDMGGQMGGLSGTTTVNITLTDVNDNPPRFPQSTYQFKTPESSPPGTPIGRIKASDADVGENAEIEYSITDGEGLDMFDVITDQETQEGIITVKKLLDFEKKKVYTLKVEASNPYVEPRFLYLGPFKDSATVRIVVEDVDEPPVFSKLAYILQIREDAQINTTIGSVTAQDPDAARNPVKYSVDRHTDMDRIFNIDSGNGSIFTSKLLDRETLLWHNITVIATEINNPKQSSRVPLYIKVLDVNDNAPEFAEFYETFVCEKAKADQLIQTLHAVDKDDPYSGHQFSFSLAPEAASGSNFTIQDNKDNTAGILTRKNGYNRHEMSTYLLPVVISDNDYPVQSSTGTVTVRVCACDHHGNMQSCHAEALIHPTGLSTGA

B1: CL069463-H1L1 (antibody, human IgG1, kappa, V domains shown)
VH: EVQLVESGGGLVQPSGSLKLSCAASGFTFNTYALTWVRQASGKGLEWVGRIKSKNKDYETYYADSVKDRFTISRDDSISTLYLQMNSLKTEDTALYYCVRQNWNYFDYWGQGTMLTVSS
VL: DIQMTQSPSSLSASVGQRVTITCRASENIYYSLAWYQQKPGKPPRLLIYNANSLKDGVPSRFSGSGSGTQYTMTITSMQPEDFATYYCQQAYDVPPTFGGGTKLEIKR
notes: Humanized IgG1/kappa
B2: CL069463-H2L2 (antibody, human IgG1, kappa)
heavy: not shown
light: DIQMTQSPSSLSASVGDRVTITCRASENIYYSLAWYQQKPGKAPKLLIYNANSLKDGVPSRFSGSGSGTDYTMTISSMQPEDFATYYCQQAYDVPPTFGGGTKVEIKRTVAAPSVFIFPPSDEQLKSGTASVVCLLNNFYPREAKVQWKVDNALQSGNSQESVTEQDSKDSTYSLSSTLTLSKADYEKHKVYACEVTHQGLSSPVTKSFNRGEC
notes: Humanized IgG1/kappa
B3: CL069463-H2L3 (antibody, human IgG1, kappa)
heavy: not shown
light: B2 light with D17E
notes: Humanized IgG1/kappa
B4: CL069707-H1L2 (antibody, human IgG1, kappa, V domains shown)
VH: EVQLVESGGGLVQPGGSLRLSCAASGFTFTTYAMNWVRQAPGKGLEWVARIRIKNNNYATYYADSVTDRFTISRDDSKNSLYLQMNSLKTEDTAVYYCVRPDYGNYGLAYWGQGTLVTVSS
VL: DIQLTQSPSSLSASVGDRVTITCSASSSISSHYLHWYQQKPGKSPKLLIYRSFYLASGVPLRFSGSGSGTDFTLTISSLQPEDFATYYCQQDIVPLTFGQGTKLEIKR
notes: Humanized IgG1/kappa, produced in 293 cells
B5: CL069707-H2L1 (antibody, human IgG1, kappa, V domains shown)
VH: B4 VH with A49G
VL: B4 VL with L61S
notes: as for B4
B6: CL069707-H2L2 (antibody, human IgG1, kappa, V domains shown)
VH: B4 VH with A49G
VL: B4 VL
notes: as for B4
B7: CL069439 antibody (antibody, V domains shown)
VH: EVQLQQSGTELVRTGASVKISCKASGYSFTGYYIHWIKQSHGESLEWIGYISCFNGDTSYNQNFKDRATFNVDTSSSTAYMQFISLTSEDSAVYYCVRGRYGNFNYFDYWGQGTTLTVSS
VL: DIVLTQSPASLAVSLGQRATISCRASESVEFYGTSLMQWFQQKPGHPPQLLIYATSNVDSGVPARFSASGSGTDFSLNIHPVEEADIAMYFCQQSRRIPWTFGGGTKLEIK
notes: Mouse monoclonal antibody from hybridoma, purified from ascites with Protein A/G; also called #16; No. 16
B8: CL069707 antibody (antibody, V domains shown)
VH: B4 VH with Q3H, G15K, R19K, A23V, K78Q, N79S, S80M, S87N, V95M, S121A
VL: EIVLTQSPTTMAASPGEKITITCSASSSISSHYLHWYQQKPGFSPKLLIYRSFYLASGVPLRFTGSGSGTSYSLTIGTMEAEDVATYYCQQDIVPLTFGAGTKLELK
notes: Mouse monoclonal antibody from hybridoma, purified from ascites with Protein A/G; also called #23; No. 23
B9: CL069463 antibody (antibody, V domains shown)
VH: B1 VH with S15K, S41P, D75N, I78Q, T80L, S87N, L95I, M114T
VL: DIQMTQSPASLAASVGETVTITCRASENIYYSLAWYQQRQGKSPQLLIYNANSLKDGVPSRFSGSGSGTQYSMKINSMQPEDTATYFCQQAYDVPPTFGGGTKLEIK
notes: Mouse monoclonal antibody from hybridoma, purified from ascites with Protein A/G; also called #13; No. 13
B10: CL069066 antibody (antibody, V domains shown)
VH: EVKLLESGGGLVQPGGSLKLSCAASGFDFSRYWMTWVRQAPGKGLEWIGEINPDSSTINYTPSLKDKFIISRDNAKNTLYLQMNKVTSEDTALYYCTRRPHYYGYFDSWGQGTTLTVSS
VL: DIVLTQSPASLAVSLGQRATISCRASESVEYYGTTLMQWYQQKPGQPPQLLIYAGSNVESGVPARFSGSGSGTEFSLNIHPVEEDDIGMYFCQQSRKVPWTFGGGTKLEIK
notes: Mouse monoclonal antibody from hybridoma, purified from ascites with Protein A/G; also called #4; No. 4

Key:
[1] = target: T1, CDH6 on the cell surface of OVCAR-3 …; test: flow cytometry (FACS) on OVCAR-3 cells, antibody titration, labelled secondary antibody, MFI
[2] = target: T1, CDH6 on the cell surface of OVCAR-3 …; test: as above; remark: listed apart in the source
Method: The binding EC50 of the humanized antibodies on tumor cell were tested as follow. Human ovarian cancer cell line OVCAR-3(purchased from National Collection of Authenticated Cell Cultures) cell culture was maintained in vitro as independent monolayer cultures at 37° C. in an atmosphere of 5% CO₂. The cells were harvested using trypsin-EDTA partial digestion followed by centrifugation at 1000 rpm for 5 minutes. The cell was resuspended in cold PBS and serial dilution of Ch069707 and CL069707-H1L1, CL069707-H1L2, CL069707-H2L1 and CL069707-H2L2 antibodies were added. Ch069707 antibody was a chimeric antibody. The variable regions were the same as those of CL069707, and the constant region was the same as human IgG1 constant regions (SEQ ID NO: 70 and SEQ ID NO: 71). The cell solutions were mixed, incubated at 4° C. and washed with cold PBS prior to addition of secondary antibody conjugates (for detection purposes). After incubation at 4° C., the cells were washed with PBS, and then subjected to flow cytometry (FACS) analysis.

recombinant protein CDH6 [3] = target: T2, recombinant protein CDH6; test: ELISA, CDH6 coated; antibody 25 ng/mL
Method: (§1) The recombinant protein CDH6 was coated on ELISA plates at 1 μg/mL overnight at 4° C.; after being washed with PBST, the plate was added with 10% fetal bovine serum, and the mixture was blocked at 37° C. for 1 h; the plate was added with 13 monoclonal antibodies of CDH6 with different dilutions (0.1 ng/mL to 100 ng/mL), and the mixture was reacted at 37° C. for 1 h; after being washed with PBST, the plate was added with horseradish peroxidase-labeled goat anti-human IgG secondary antibody (Goat anti Mouse (HRP), Thermo Fisher Scientific), and the mixture was reacted at 37° C. for 30 min; after the plate was repeatedly washed with PBST 5 times, the remaining droplets on the absorbent paper were patted as much as possible; each well of the plate was added with 100 μL of TMB (eBioscience) and placed in the dark at room temperature (20±5° C.) for 1.5 min; each well of the plate was added with 100 μL of 2 N H₂SO₄ stop buffer for stopping substrate reaction, OD values at 450 nm were read using a microplate reader, and the binding ability of the antibody to the target antigen CDH6 was analyzed.

recombinant protein CDH6 [4] = target: T2, recombinant protein CDH6; test: ELISA, CDH6 coated at 1 ug/mL
Method: as §1

recombinant protein CDH6 [5] = target: T2, recombinant protein CDH6; test: ELISA, CDH6 coated; antibody 1.56 ng/mL
Method: as §1

recombinant protein CDH6 [6] = target: T2, recombinant protein CDH6; test: ELISA, CDH6 coated; antibody 0.78 ng/mL
Method: as §1

recombinant protein CDH6 [7] = target: T2, recombinant protein CDH6; test: ELISA, CDH6 coated; antibody 3.13 ng/mL
Method: as §1

recombinant protein CDH6 [8] = target: T2, recombinant protein CDH6; test: ELISA, CDH6 coated; antibody 50 ng/mL
Method: as §1

recombinant protein CDH6 [9] = target: T2, recombinant protein CDH6; test: ELISA, CDH6 coated; antibody 6.25 ng/mL
Method: as §1

recombinant protein CDH6 [10] = target: T2, recombinant protein CDH6; test: ELISA, CDH6 coated; antibody 12.5 ng/mL
Method: as §1

recombinant protein CDH6 [11] = target: T2, recombinant protein CDH6; test: ELISA, CDH6 coated; antibody 0.10 ng/mL
Method: as §1

recombinant protein CDH6 [12] = target: T2, recombinant protein CDH6; test: ELISA, CDH6 coated; antibody 100 ng/mL
Method: as §1

recombinant protein CDH6 [13] = target: T2, recombinant protein CDH6; test: ELISA, CDH6 coated; antibody 0.39 ng/mL
Method: as §1

recombinant protein CDH6 [14] = target: T2, recombinant protein CDH6; test: ELISA, CDH6 coated; antibody 0.20 ng/mL
Method: as §1

| Binder | EC50 (read off the curve) [1] | EC50 (read off the curve) [2] | OD450 (recombinant protein CDH6 [3]) | sensitivity (recombinant protein CDH6 [4]) | OD450 (recombinant protein CDH6 [5]) | OD450 (recombinant protein CDH6 [6]) | OD450 (recombinant protein CDH6 [7]) | OD450 (recombinant protein CDH6 [8]) | OD450 (recombinant protein CDH6 [9]) | OD450 (recombinant protein CDH6 [10]) | OD450 (recombinant protein CDH6 [11]) | OD450 (recombinant protein CDH6 [12]) | OD450 (recombinant protein CDH6 [13]) | OD450 (recombinant protein CDH6 [14]) |
| --- | --- | --- | --- | --- | --- | --- | --- | --- | --- | --- | --- | --- | --- | --- |
| B1 | ~4 nM | – | – | – | – | – | – | – | – | – | – | – | – | – |
| B2 | ~4 nM | – | – | – | – | – | – | – | – | – | – | – | – | – |
| B3 | ~3 nM | – | – | – | – | – | – | – | – | – | – | – | – | – |
| B4 | – | ~1 nM | – | – | – | – | – | – | – | – | – | – | – | – |
| B5 | – | ~1 nM | – | – | – | – | – | – | – | – | – | – | – | – |
| B6 | – | ~1 nM | – | – | – | – | – | – | – | – | – | – | – | – |
| B7 | – | – | 3.69 OD450 | ≤ 1 ng/mL | 1.11 OD450 | 0.647 OD450 | 1.87 OD450 | 3.89 OD450 | 2.82 OD450 | 3.62 OD450 | 0.106 OD450 | 3.9 OD450 | 0.255 OD450 | 0.181 OD450 |
| B8 | – | – | 1.18 OD450 | ≤ 1.56 ng/mL | 0.577 OD450 | 0.305 OD450 | 0.831 OD450 | 1.33 OD450 | 1.01 OD450 | 1.27 OD450 | 0.069 OD450 | 1.41 OD450 | 0.165 OD450 | 0.101 OD450 |
| B9 | – | – | 1.8 OD450 | ≤ 3.12 ng/mL | 0.374 OD450 | 0.211 OD450 | 0.596 OD450 | 2.32 OD450 | 0.975 OD450 | 1.7 OD450 | 0.073 OD450 | 2.62 OD450 | 0.139 OD450 | 0.086 OD450 |
| B10 | – | – | 1.69 OD450 | ≤ 6.3 ng/mL | 0.17 OD450 | 0.094 OD450 | 0.3 OD450 | 2.11 OD450 | 0.577 OD450 | 1.08 OD450 | 0.048 OD450 | 2.38 OD450 | 0.063 OD450 | 0.05 OD450 |
